Results taken from US20130302375A1, “MODULATION OF ANTIGEN IMMUNOGENICITY BY ADDITION OF EPITOPES RECOGNIZED BY NKT CELLS” (IMNATE SARL, priority 2010, published 2013).

Tests used:
[1] = test system: EG7 cells; assay: In vitro killing of EG7 cells by NKT cells from immunized mice (Annexin V / 7-AAD); type: cell-based; conditions: 18 h at 37° C. with NKT cells from immunized mice, ratios 1/1 to 1/5 (EG7 versus NKT)
Procedure: In vitro killing of EG7 cells was evaluated using NKT cells prepared from the spleen using magnetic bead sorting. The NKT cells were first stimulated for 4 h in vitro with antigen-presenting cells loaded with ova of SEQ ID4. EG7 cells were labeled at membrane level with 1 μM DiOC18 (3,3′-dioctadecycloxacarbocyanine perchlorate from Invitrogen). EG7 cells (1×10^5 per well) were then cultured for 18 h at 37° C. in the presence of NKT cells obtained from each one of the 2 mouse groups, using ratios of 1/1 to 1/5 (EG7 cells versus NKT cells). After 18 h, cells were harvested and stained for Annexin V and 7-AAD following manufacturer's instructions (Apoptosis Detection kit; BD Biosciences) and analyzed on a FACSCantoII flow cytometer (BD Biosciences).

[2] = test system: EG7 tumor cells; assay: EG7 tumor growth in preimmunized mice; type: in vivo; conditions: mice preimmunized subcutaneously in alum on 4 occasions, then engrafted with 10^6 EG7 tumor cells in the flank
Procedure: Immunization of mice with ova of SEQ ID4 was carried out using […] of ova in alum administered subcutaneously on 4 occasions separated by an interval of 10 days. A control group was immunized with ova in natural sequence (SEQ ID3). All mice were then engrafted with 10^6 EG7 tumor cells injected in the flank and the growth of the tumor was followed over time.

[3] = test system: class II restricted CD4+ T cells; assay: Proliferation of CD4+ T cells from immunized mice cultured with dendritic cells from CD1d KO mice; type: cell-based, C57BL/6 mice; conditions: 10^6 cells/well with dendritic cells from syngeneic CD1d KO mice
Procedure: Further, CD4+ T cells were prepared from the spleen of each mouse from the 2 groups, using magnetic bead sorting. Such cells (10^6 cells/well) were cultured with dendritic cells prepared from syngeneic CD1d KO mice. Such cells can only activate class II restricted CD4+ T cells. It is observed that cells obtained from mice immunized with Der p 2 of SEQ ID8 proliferate with a stimulation index 4-fold higher than cells obtained from mice immunized with native Der p 2 (SEQ ID7).

[4] = test system: anti-Der p 2 antibodies; assay: Specific anti-Der p 2 antibodies by direct binding ELISA after immunization; type: in vivo, C57BL/6 mice; conditions: 50 μg protein in alum subcutaneously 4 times at 10 days intervals
Procedure: Two groups of C57BL/6 mice (H-2b) were immunized with either native Der p 2 (SEQ ID7) or native Der p 2 wherein a CD1d binding motif had been added (SEQ ID8), using 50 μg of protein in alum injected subcutaneously 4 times at 10 days intervals. Mice were then bled and the concentration of specific anti-Der p 2 antibodies was tested by direct binding ELISA. It is observed that the concentration of antibodies is 10-fold higher in the group of mice immunized with Der p 2 of SEQ ID8.

Molecule	apoptosis of EG7 cells [1]	tumor rejection [2]	stimulation index of CD4+ T cell proliferation, versus cells from mice immunized with native Der p 2 (SEQ ID7) [3] [fold]	concentration of specific anti-Der p 2 antibodies, versus mice immunized with native Der p 2 (SEQ ID7) [4] [fold]
ova of SEQ ID4: ovalbumin with H22 and K187 mutated to F, generating new CD1d binding motifs (protein, listed as Gallus sp.) MGSIGAASMEFCFDVFKELKVFHANENIFYCPIAIMSALAMVYLGAKDSTRTQINKVVRFDKLPGFGDSIEAQCGTSVNVHSSLRDILNQITKPNDVYSFSLASRLYAEERYPILPEYLQCVKELYRGGLEPINFQTAADQARELINSWVESQTNGIIRNVLQPSSVDSQTAMVLVNAIVFKGLWEFTFKDEDTQAMPFRVTEQESKPVQMMYQIGLFRVASMASEKMKILELPFASGTMSMLVLLPDEVSGLEQLESIINFEKLTEWTSSNVMEERKIKVYLPRMKMEEKYNLTSVLMAMGITDVFSSSANLSGISSAESLKISQAVHAAHAEINEAGREVVGSAEAGVDAASVSEEFRADHPFLFCIKHIATNAVLFFGRCVSP	induced into apoptosis	rejected the tumor	–	–
ova of SEQ ID3: ovalbumin (chicken) in natural sequence (protein, listed as Gallus sp.) MGSIGAASMEFCFDVFKELKVHHANENIFYCPIAIMSALAMVYLGAKDSTRTQINKVVRFDKLPGFGDSIEAQCGTSVNVHSSLRDILNQITKPNDVYSFSLASRLYAEERYPILPEYLQCVKELYRGGLEPINFQTAADQARELINSWVESQTNGIIRNVLQPSSVDSQTAMVLVNAIVFKGLWEKTFKDEDTQAMPFRVTEQESKPVQMMYQIGLFRVASMASEKMKILELPFASGTMSMLVLLPDEVSGLEQLESIINFEKLTEWTSSNVMEERKIKVYLPRMKMEEKYNLTSVLMAMGITDVFSSSANLSGISSAESLKISQAVHAAHAEINEAGREVVGSAEAGVDAASVSEEFRADHPFLFCIKHIATNAVLFFGRCVSP	did not induce a significant degree of tumor cell apoptosis	did not	–	–
Der p 2 of SEQ ID8: Der p 2 with the CD1d binding motif FAALAAF added at the carboxyterminal end (protein, listed as Dermatophagoides pteronyssinus) DQVDVKDCANHEIKKVLVPGCHGSEPCIIHRGKPFQLEAVFEANQNSKTAKIEIKASIDGLEVDVPGIDPNACHYMKCPLVKGQQYDIKYTWNVPKIAPKSENVVVTAKVMGDDGVLACAIATHAKIRDFAALAAF	–	–	4	10
